In paper PMC4331669, “Phosphatidylinositol binding of Saccharomyces cerevisiae Pdr16p represents an essential feature of this lipid transfer protein to provide protection against azole antifungals” (Biochimica et Biophysica Acta. Molecular and Cell Biology …, 2014):

Biological target: the molecule itself
Assay: SEC; Superose 12 10/300 GL, 20 mM PIPES pH 6.8, 250 mM NaCl, 2.7 mM KCl, 0.4 ml/min; BSA and ovalbumin as molecular weight standards; apparent mass about 90 kDa against a predicted monomer of 40.7 kDa

Row | Protein | stoichiometry N
1 | Pdr16p (wild-type, recombinant Pdr16-His) (natural protein, S. cerevisiae, UniProt P53860 1-351, looked up, Pdr16p (Sfh3p) of Saccharomyces cerevisiae, ORF PDR16 amplified from YEplac181-PDR16 and inserted between NdeI and NotI of pET26; predicted monomer mass 40.7 kDa; The whole ORF was cloned NdeI-NotI into pET26 with a C-terminal 6xHis; No removal of the tag is described; also called Sfh3p; source: E. coli Rosetta, purified (Ni-NTA agarose)) MFKRFSKKKEAPEDPKNLINIDKPIKELPASIAIPKEKPLTGEQQKMYDEVLKHFSNPDLKVYTSEKNKSEDDLKPLEEEEKAWLTRECFLRYLRATKWVLKDCIDRITMTLAWRREFGISHLGEEHGDKITADLVAVENESGKQVILGYENDARPILYLKPGRQNTKTSHRQVQHLVFMLERVIDFMPAGQDSLALLIDFKDYPDVPKVPGNSKIPPIGVGKEVLHILQTHYPERLGKALLTNIPWLAWTFLKLIHPFIDPLTREKLVFDEPFVKYVPKNELDSLYGGDLKFKYNHDVYWPALVETAREKRDHYFKRFQSFGGIVGLSEVDLRGTHEKLLYPVKSESSTV | 2
2 | Pdr16p^(E235A, K267A) (recombinant Pdr16^(E235A, K267A)-His) (natural protein, S. cerevisiae, UniProt P53860 1-351, looked up, Same construct as m1 with the two point mutations; source: E. coli Rosetta, purified (Ni-NTA agarose)) MFKRFSKKKEAPEDPKNLINIDKPIKELPASIAIPKEKPLTGEQQKMYDEVLKHFSNPDLKVYTSEKNKSEDDLKPLEEEEKAWLTRECFLRYLRATKWVLKDCIDRITMTLAWRREFGISHLGEEHGDKITADLVAVENESGKQVILGYENDARPILYLKPGRQNTKTSHRQVQHLVFMLERVIDFMPAGQDSLALLIDFKDYPDVPKVPGNSKIPPIGVGKEVLHILQTHYPARLGKALLTNIPWLAWTFLKLIHPFIDPLTREALVFDEPFVKYVPKNELDSLYGGDLKFKYNHDVYWPALVETAREKRDHYFKRFQSFGGIVGLSEVDLRGTHEKLLYPVKSESSTV | 2
